This is an account of results in patent US20140056907A1 (Regeneron, published 2014).

Changes are numbered by the printed parent chain.

The target of assay [1] is T1, human ASIC1 (human, UniProt P78348 1-528).
T1 sequence: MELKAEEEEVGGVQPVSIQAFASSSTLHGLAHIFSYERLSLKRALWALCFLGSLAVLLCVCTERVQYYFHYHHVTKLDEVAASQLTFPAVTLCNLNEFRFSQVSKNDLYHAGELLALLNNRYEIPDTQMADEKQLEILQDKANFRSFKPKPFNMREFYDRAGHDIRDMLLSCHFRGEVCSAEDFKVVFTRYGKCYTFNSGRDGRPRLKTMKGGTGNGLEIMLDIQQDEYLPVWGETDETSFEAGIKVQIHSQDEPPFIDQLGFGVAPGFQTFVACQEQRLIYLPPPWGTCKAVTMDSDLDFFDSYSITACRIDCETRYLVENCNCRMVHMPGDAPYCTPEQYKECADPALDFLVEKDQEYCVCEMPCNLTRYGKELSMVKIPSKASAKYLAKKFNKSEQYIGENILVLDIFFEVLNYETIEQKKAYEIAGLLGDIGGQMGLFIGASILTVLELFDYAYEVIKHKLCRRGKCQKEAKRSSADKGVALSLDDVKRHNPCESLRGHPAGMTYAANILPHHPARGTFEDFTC
The assay can be described thus: cell-based or functional assay.

Assay [2] deals with T1, human ASIC1. Put plainly: FACS titration, 3T3/hASIC1 cells. The protocol:
To perform the FACS binding experiments, adherent cells were collected using 1 mM EDTA in PBS, then washed, and re-suspended in cold PBS containing 5% FBS. For each binding experiment, each anti-ASIC1 antibody ([…] or ND7 cells) was added to 250,000 cells in 500 μL of PBS with 5% FBS. After incubation for 20 minutes at room temperature, a secondary antibody which recognizes human Fc (Cat. No. 109-136-098, Jackson ImmunoResearch Laboratories, Inc., West Grove, Pa.) or mouse Fc (Cat. No. 550826, BD Biosciences, San Jose, Calif.) and is conjugated to allophycocyanin, was then added to the cell mixture at a final concentration of 13.3 nM. After incubating for 20 minutes on ice, the cells were washed and resuspended in PBS containing 5% FBS, then sorted and analyzed on a flow cytometer (FACSCalibur, BD Biosciences, San Jose, Calif.) to determine relative binding by the candidate antibodies to the tested cell lines. Histograms of cells stained with anti-ASIC1 antibodies were compared with those of cells stained with secondary antibody alone. Percentage of ASIC1 signal over secondary antibody alone was calculated using FlowJo software (Tree Star, Ashland, Oreg.).

The target in a further assay is T2, human ASIC3 (human, UniProt Q9UHC3 1-531).
T2 construct: whole, on cells; Expressed on 3T3 cells (3T3/hASIC3) or HEK293 cells (HEK/hASIC3-QCells); also called hASIC3
T2 sequence (looked up): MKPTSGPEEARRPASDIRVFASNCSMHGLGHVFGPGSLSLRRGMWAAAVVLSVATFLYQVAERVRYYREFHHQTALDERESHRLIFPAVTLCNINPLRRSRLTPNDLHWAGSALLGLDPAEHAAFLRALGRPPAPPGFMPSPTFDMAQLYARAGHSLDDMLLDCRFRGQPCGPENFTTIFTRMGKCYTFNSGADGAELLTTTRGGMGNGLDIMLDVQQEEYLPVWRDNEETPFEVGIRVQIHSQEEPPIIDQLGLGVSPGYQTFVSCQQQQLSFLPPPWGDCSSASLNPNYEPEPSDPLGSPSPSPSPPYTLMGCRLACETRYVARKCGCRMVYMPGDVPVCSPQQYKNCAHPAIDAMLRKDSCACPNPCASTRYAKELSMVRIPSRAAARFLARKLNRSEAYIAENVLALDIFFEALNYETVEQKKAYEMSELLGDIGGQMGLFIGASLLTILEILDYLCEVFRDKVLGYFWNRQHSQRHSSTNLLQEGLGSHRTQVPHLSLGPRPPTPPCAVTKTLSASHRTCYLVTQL
Put plainly: FACS, 3T3/hASIC3 cells, 10 nM antibody. The text has this:
(§1) For these experiments, four cell lines were constructed: (a) a mouse fibroblast 3T3 cell line stably transfected to overexpress full length human ASIC3 (3T3/hASIC3; amino acids 1-531 of NCBI accession number NP_{—}004760.1), (b) a 3T3 cell line stably transfected to co-express full length human ASIC1a and human ASIC3 (3T3/hASIC1/3; amino acids 1-528 of NCBI accession number NP_{—}001086.2 and amino acids 1-531 of NCBI accession number NP_{—}004760.1), (c) […] a stably transfected 3T3 cell line expressing the full-length mouse ASIC3 channel (3T3/mASIC3; amino acids 1-530 of NCBI accession number NP_{—}892045.2), and (d) a 3T3 cell line stably transfected to co-express full length mouse ASIC1a and mouse ASIC3 (3T3/mASIC1/3; amino acids 1-526 of NCBI accession number NP_{—}033727 and amino acids 1-530 of NCBI accession number NP_{—}892045.2). Antibody binding was determined using flow cytometry (FACS).
(§2) To perform the FACS binding experiments, adherent cells were collected with cold Millipore Accutase 3-5 minutes, spun and resuspended in ice-cold FACS buffer (PBS, 2% HI-FBS and 0.09% Na-azide). Anti-ASIC1 antibody at final concentrations of 10 nM was added for 20-30 minutes on ice. Cells were washed with 900 μL ice-cold FACS buffer, spun, and resuspended in 100 μL ice-cold FACS buffer. A secondary antibody which recognizes human Fc (Jackson Immuno Research, #109-136-098) and is conjugated to allophycocyanin, was then added to the cell mixture at a final concentration of 2.5 ug/mL. After incubating for 20 minutes on ice, the cells were washed and resuspended in FACS buffer, then sorted and analyzed on a flow cytometer (FACSCanto II, BD Biosciences, San Jose, Calif.) to determine relative binding by the candidate antibodies to the tested cell lines. Histograms of cells stained with anti-ASIC1 antibodies were compared with those of cells stained with secondary antibody alone. Percentage of ASIC1 signal over secondary antibody alone was calculated using FlowJo software (Tree Star, Ashland, Oreg.).
Background: Flow cytometry measures light scatter and fluorescence of single cells or particles in a stream.

For assay [3], the target named is T3, human ASIC1/ASIC3 channels (co-expressed human ASIC1a and human ASIC3) (human, UniProt Q9UHC3 1-531).
T3 construct: whole, on cells; 3T3 cells co-expressing both subunits; also called 3T3/hASIC1/3; 3T3-hASIC1/ASIC3
T3 sequence 1: T1 sequence
T3 sequence 2: T2 sequence (looked up)
Put plainly: FACS, 3T3/hASIC1/3 cells, 10 nM antibody.
Description: as §1, §2

The target of assay [4] is T1, human ASIC1. Put plainly: cell-based or functional assay. This is another data set of the same source.
Assay [5] has as its target T1, human ASIC1. Put plainly: cell-based or functional assay. The source holds these as a separate data set.
The target of a further assay is T4, mouse ASIC1a (mouse, UniProt Q6NXK8 1-526).
T4 construct: whole, on cells; Expressed on stably transfected 3T3 cells (3T3/mASIC1a); also called mASIC1a
T4 sequence (looked up): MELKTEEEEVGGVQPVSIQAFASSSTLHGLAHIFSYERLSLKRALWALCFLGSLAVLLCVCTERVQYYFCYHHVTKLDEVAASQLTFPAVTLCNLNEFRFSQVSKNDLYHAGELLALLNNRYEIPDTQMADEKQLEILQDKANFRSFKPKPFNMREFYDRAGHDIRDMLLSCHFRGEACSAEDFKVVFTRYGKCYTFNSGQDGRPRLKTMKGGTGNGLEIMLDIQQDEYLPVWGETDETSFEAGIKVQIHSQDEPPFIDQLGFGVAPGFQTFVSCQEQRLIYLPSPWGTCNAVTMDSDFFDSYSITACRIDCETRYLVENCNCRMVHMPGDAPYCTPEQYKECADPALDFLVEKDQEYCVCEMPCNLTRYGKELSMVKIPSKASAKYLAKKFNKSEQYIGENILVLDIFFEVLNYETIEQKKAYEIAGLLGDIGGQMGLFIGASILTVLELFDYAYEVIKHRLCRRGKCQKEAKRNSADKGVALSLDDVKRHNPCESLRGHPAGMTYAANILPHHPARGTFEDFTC
The assay can be described thus: FACS, 3T3/mASIC1a cells. The text has this:
To further characterize anti-ASIC1 antibodies, their ability to bind either (a) a mouse fibroblast 3T3 cell line stably transfected to overexpress full length human ASIC1 (3T3/hASIC1; amino acids 1-528 of NCBI accession number NP_{—}001086.2 [SEQ ID NO:401]), (b) a 3T3 cell line stably transfected to over express full length mouse ASIC1a (3T3/mASIC1a; amino acids 1-526 of NCBI accession number NP_{—}033727), or (c) a ND7 cell line (ECACC, #92090903) that is a fusion cell line of mouse neuroblastoma and rat dorsal root ganglia that endogenously expresses rat ASIC1, was determined using flow cytometry (FACS). ND7 cells were differentiated by replacing the culture media with low-serum media (0.5% FBS) containing 1 mM dibutyryl-cAMP (Cat. No. sc-201567A, Santa Cruz Biotechnology, Inc., Santa Cruz, Calif.). FACS binding was tested for some antibodies on both undifferentiated ND7 cells and differentiated ND7 cells.
To perform the FACS binding experiments, adherent cells were collected using 1 mM EDTA in PBS, then washed, and re-suspended in cold PBS containing 5% FBS. For each binding experiment, each anti-ASIC1 antibody (at final concentrations of 10 nM of purified antibodies or 3.3 nM for antibody supernatants for binding to 3T3/hASIC1 cells and 5 nM for binding to 3T3/mASIC1a or ND7 cells) was added to 250,000 cells in 500 μL of PBS with 5% FBS. After incubation for 20 minutes at room temperature, a secondary antibody which recognizes human Fc (Cat. No. 109-136-098, Jackson ImmunoResearch Laboratories, Inc., West Grove, Pa.) or mouse Fc (Cat. No. 550826, BD Biosciences, San Jose, Calif.) and is conjugated to allophycocyanin, was then added to the cell mixture at a final concentration of 13.3 nM. After incubating for 20 minutes on ice, the cells were washed and resuspended in PBS containing 5% FBS, then sorted and analyzed on a flow cytometer (FACSCalibur, BD Biosciences, San Jose, Calif.) to determine relative binding by the candidate antibodies to the tested cell lines. Histograms of cells stained with anti-ASIC1 antibodies were compared with those of cells stained with secondary antibody alone. Percentage of ASIC1 signal over secondary antibody alone was calculated using FlowJo software (Tree Star, Ashland, Oreg.).

B1: H1M6716N (antibody, mouse IgG1, V domains shown)
VH: QVQLVQSGAEVKKPGASVKVSCKASGYTFTIYDINWVRQATGQGLEWMGWMNPRSGSTGYSQKFQGRVTMTRNTSINTAFMELSSLRSEDTAVYYCVRGQLVLGYWGQGTLVTVSS
VL: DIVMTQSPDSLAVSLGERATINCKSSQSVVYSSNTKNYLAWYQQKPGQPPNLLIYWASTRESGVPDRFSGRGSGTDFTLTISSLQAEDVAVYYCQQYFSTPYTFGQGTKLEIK
A word on the EC50: it is the concentration at which the effect is half-maximal. A high value points to a need for much substance. With B1, in the assay with human ASIC1 [1], the “FLIPR Dose Curve, pH 5.0 % Block” value came out at 25%; the “FLIPR Dose Curve, pH 5.5 % Block” value worked out at 37%; the “FLIPR Dose Curve, pH 5.5 IC50” value is 1.1 nM. This molecule yielded an EC50 in the assay with human ASIC1 [2] of 0.023 nM. Further, the binding result in the assay with human ASIC3 is “binds”. In assay [3], the binding result is on record as “binds”.

B2: H4H6366P (antibody, human IgG4, V domains shown)
VH: EVQLVESGGDLIQPGGSLRLSCIASGFTFRGYAMSWVRQAPGEGLDWVSGISSGGGNTYYADSVKGRFTISRDNSKNTLYLQMNSLRVEDTAVYYCAKDRGGVRDFYYGLDVWGQGTTVTVSS
VL: DIQMTQSPSTLSASVGDRVTITCRASQSIYSWLAWYQQKPGKAPKLLIYKASSLESGVPSRFSGSGSGTDFTLTISSLQPDDFTTYYCQQYLSYSRTFGQGTKVEIK
Take B2: the “apparent IC50, human ASIC1 current, Q-Patch” value (“apparent IC50” below) with human ASIC1 [4] was at most 10 nM. In addition, the “Current inhibition (%) at 100 nM antibody, Q-Patch, pH 6.0” value (“Current inhibition (%)” for short) with human ASIC1 [5] is 72%. Also, the binding result with mouse ASIC1a was “binds”. In the assay with human ASIC1 [2], the EC50 was 1 nM.

B3: H1M6718N (antibody, mouse IgG1, V domains shown)
VH: EVQLLESGGGLVQPGGSLRLSCAASGFTFSSFAMSWVRQAPGKGLEWVSGISGSGGGTHYADSVKGRFTISRDNSKNMVYLQMNSLRAEDTAAYYCAKEAYKWQPWGQGTLVTVSS
VL: B2 VL with T20I, S28R, Y30S, K45N, S53I, D70E, T84A, L92N, R96Y, V104L
For B3, in the assay with human ASIC1 [4], the “apparent IC50” value is below 1 nM and the “calculated IC50, inhibition of human ASIC1 current, Port-a-Patch” value was 0.86 nM. Also, in the assay with human ASIC1 [1], the “FLIPR Dose Curve, pH 5.0 % Block” value came out at 48%; the “FLIPR Dose Curve, pH 5.5 % Block” value is 78%; the “FLIPR Dose Curve, pH 5.5 IC50” value was 0.6 nM. The “Current inhibition (%)” value with human ASIC1 [5] came to 100%. In the assay with mouse ASIC1a, the binding result is recorded as “binds”. For the same molecule, the EC50 with human ASIC1 [2] was 0.55 nM.

B4: H1M7101N (antibody, mouse IgG1, V domains shown)
VH: B3 VH with E6A, P14T, G57S, H59Y, M78T, V79L, T110I, L111R
VL: B2 VL with Y30S, K45N, A51T, S53N, D70E, T84A, L92N, R96Y, V104L
As to B4, the “apparent IC50” value with human ASIC1 [4] is below 1 nM. Further, in the assay with human ASIC1 [5], the “Current inhibition (%)” value turned out to be 97%. Further, the binding result with mouse ASIC1a was “binds”. Also, the EC50 with human ASIC1 [2] worked out at 0.72 nM.

B5: H4H6363P (antibody, V domains shown)
VH: EVQLLESGGGLVQPGGSLRLSCAASGFIFTNYAMTWLRQAPGKGLEWVSALSGSGGTTYYADSVKGRFTTSRDNSKNTLYLQMNSLRAEDTAVYYCAKDPHYYGSGNDYFYYYGLDVWGRGTTVTVSS
VL: not shown
As to B5, the “Current inhibition (%)” value with human ASIC1 [5] came to 0%. Also, in the assay with human ASIC1 [2], it took 0.836 nM to reach a half-maximal effect (EC50). For the same molecule, the binding result (in the assay with human ASIC3; in assay [3]) was “binds” in each case.
